# Assay results taken from article PMC2447818.
# Biological target: GFP-VIM (lens vimentin fused to green fluorescence protein) (UniProt P08670)
# Experiment: FRET or BRET; FRET acceptor photobleaching by confocal laser scanning microscopy in living HeLa cells, 48 h after co-transfection; GFP fusion as donor, RFP fusion as acceptor; RFP bleached at 543 nm for 45 s in a region of interest or a whole cell; E=1 – F(GFP-min)/F(GFP-max)
# RFP-αB (wild-type αB-crystallin fused to red fluorescence protein), sequence (P02511 whole entry, the tested form may be a part): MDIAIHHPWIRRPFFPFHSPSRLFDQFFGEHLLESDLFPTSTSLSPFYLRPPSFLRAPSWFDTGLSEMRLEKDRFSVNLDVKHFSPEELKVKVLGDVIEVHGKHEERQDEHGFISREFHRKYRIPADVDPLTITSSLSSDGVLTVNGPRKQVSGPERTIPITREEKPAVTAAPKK
# GFP-VIM (lens vimentin fused to green fluorescence protein), sequence (P08670 2-466): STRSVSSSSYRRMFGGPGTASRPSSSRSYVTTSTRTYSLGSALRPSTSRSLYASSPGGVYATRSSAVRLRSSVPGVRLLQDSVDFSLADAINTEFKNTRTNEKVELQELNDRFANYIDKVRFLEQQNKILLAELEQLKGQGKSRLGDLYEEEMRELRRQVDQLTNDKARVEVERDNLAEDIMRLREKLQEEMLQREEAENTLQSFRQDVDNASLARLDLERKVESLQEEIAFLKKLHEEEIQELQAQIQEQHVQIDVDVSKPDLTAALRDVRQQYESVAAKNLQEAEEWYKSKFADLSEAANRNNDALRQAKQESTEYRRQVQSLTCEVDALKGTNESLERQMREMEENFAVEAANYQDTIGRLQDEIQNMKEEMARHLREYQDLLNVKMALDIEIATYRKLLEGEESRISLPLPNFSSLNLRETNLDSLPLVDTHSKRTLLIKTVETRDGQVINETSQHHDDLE
substance,measurement,value
RFP-αB (wild-type αB-crystallin fused to red fluorescence protein) (from UniProt P02511 1-175) (natural protein),FRET efficiency (one representative cell),9.5%
